We go through nine molecules from patent publication US20260166168A1 (MEDILINK THERAPEUTICS SUZHOU, published 2026).

The target of assay [1] is T1, recombinant extracellular domain protein of human DLL3 (h.DLL3-ECD-His) (human, UniProt Q9NYJ7 27-492).
T1 construct: extracellular domain; Commercial protein; also called human DLL3 antigen; not shown: His tag
T1 sequence (looked up): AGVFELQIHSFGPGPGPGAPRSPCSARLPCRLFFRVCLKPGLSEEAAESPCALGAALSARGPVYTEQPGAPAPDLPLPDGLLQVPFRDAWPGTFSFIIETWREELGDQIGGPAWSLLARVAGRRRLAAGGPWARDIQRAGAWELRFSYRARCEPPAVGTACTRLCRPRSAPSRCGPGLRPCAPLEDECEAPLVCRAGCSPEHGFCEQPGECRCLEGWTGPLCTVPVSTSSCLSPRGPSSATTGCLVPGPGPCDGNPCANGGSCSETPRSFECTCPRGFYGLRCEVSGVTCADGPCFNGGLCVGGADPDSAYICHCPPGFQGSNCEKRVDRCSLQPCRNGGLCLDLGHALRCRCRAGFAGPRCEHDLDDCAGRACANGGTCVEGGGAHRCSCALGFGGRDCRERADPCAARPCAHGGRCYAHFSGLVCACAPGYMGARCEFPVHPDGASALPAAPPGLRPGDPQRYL
The assay is described as follows: ELISA, coated h.DLL3-ECD-his 0.2 µg/mL, antibody titrated.

Assay [2] concerns the target T1, recombinant extracellular domain …. Nature of the assay: BLI (ForteBio), antibody on ProA sensor, hDLL3-ECD-His in solution.
Assay [3] has as its target T2, recombinant extracellular domain protein of cynomolgus monkey DLL3 (cyno.DLL3-ECD-His) (cynomolgus monkey, UniProt A0A2K5WSR1 27-490).
T2 construct: extracellular domain; Commercial protein; not shown: His tag
T2 sequence: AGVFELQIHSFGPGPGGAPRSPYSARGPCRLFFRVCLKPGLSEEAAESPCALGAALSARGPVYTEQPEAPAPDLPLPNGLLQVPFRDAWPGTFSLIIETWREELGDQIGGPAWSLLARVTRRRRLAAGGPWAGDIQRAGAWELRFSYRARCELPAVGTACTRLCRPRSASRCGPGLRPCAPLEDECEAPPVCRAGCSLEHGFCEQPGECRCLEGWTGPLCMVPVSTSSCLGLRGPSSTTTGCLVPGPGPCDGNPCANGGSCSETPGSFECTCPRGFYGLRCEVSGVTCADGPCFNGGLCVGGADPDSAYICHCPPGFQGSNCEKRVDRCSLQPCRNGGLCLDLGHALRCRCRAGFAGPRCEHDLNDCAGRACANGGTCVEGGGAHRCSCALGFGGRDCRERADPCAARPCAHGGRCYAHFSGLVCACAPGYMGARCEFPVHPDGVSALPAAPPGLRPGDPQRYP
Nature of the assay: BLI (ForteBio), antibody on ProA sensor, cynoDLL3-ECD-His in solution.

Assay [4] concerns the target T3, human DLL1 on 293T-hDLL1 cells (human, UniProt O00548 18-723).
T3 construct: whole, on cells; also called 293T-DLL1; HEK293T-hDLL1
T3 sequence (looked up): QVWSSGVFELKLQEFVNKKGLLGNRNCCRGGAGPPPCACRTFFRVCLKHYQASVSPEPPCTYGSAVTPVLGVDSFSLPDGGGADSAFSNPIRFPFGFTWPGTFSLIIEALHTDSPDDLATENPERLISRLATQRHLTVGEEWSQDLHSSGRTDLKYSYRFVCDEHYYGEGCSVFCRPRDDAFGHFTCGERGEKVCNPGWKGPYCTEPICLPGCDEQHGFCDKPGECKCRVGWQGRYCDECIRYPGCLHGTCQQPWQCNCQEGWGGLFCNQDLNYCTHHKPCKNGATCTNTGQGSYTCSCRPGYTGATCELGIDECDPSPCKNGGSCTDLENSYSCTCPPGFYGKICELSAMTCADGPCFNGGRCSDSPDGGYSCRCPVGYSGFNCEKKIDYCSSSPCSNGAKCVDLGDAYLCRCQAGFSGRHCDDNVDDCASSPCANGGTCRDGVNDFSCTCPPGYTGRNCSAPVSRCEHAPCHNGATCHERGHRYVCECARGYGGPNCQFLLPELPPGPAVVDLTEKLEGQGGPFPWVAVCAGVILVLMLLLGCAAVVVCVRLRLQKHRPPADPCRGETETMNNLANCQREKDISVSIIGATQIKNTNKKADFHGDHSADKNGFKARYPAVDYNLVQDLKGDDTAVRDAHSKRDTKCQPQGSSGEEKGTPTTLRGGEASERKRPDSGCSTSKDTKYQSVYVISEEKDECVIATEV
The assay is described as follows: flow cytometry on HEK293T-hDLL1 cells.

Assay [5] addresses T4, human DLL4 on 293T-hDLL4 cells (human, UniProt Q9NR61 27-685).
T4 construct: whole, on cells; also called 293T-DLL4; HEK293T-hDLL4
The assay is described as follows: flow cytometry on HEK293T-hDLL4 cells.

For assay [6], the target named is T2, recombinant extracellular domain …. Nature of the assay: ELISA, coated cyno.DLL3-ECD-his 0.2 µg/mL, antibody titrated.
The target in assay [7] is T1, recombinant extracellular domain …. The assay is described as follows: ELISA, titrated antibody on plate-coated human DLL3, OD450nm.

T4 sequence (Q9NR61 27-685): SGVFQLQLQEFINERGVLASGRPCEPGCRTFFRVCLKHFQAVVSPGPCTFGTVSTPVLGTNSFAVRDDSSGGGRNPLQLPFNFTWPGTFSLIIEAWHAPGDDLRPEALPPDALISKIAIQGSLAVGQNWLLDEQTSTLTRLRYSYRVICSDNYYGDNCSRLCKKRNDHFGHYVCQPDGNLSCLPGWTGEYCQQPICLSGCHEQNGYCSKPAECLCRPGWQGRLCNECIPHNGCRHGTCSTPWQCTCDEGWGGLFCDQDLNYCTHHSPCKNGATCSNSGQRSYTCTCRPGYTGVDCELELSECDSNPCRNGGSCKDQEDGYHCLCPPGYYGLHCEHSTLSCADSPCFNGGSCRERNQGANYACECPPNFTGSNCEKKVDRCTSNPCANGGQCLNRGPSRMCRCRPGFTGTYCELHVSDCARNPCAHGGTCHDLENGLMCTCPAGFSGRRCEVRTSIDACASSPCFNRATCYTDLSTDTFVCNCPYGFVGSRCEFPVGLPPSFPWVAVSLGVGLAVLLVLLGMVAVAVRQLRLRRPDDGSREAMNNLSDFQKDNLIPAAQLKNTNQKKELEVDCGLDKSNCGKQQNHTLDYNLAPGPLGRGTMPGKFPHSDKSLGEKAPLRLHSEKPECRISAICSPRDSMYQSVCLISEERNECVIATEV

B1: 10F2F3-Hz antibody (antibody, human IgG1, kappa, V domains shown)
VH: QVQLVESGAEVKKPGSSVKVSCKASGYAFSSHWVNWVRQAPGQGLEWMGQIYPGNGDTNYAQKFQGRVTLTADKSTSTAYMELSSLTSEDTAVYFCARWFAYWGQGTLVTVSS
VL: DIQMTQSPSSLSASVGDRVTITCKSSQSLLDGGNQKNYLAWYQQKPGKPPKLLVYFASIRESGVPSRFSGSGSGTDFTLTISSLQPEDFATYYCQQHYNTPWTFGQGTKVEIKR
notes: Humanized
On to B1, for which the results for the EC50 in assay [1] and in assay [6] were 3.4 ng/mL and 3.5 ng/mL, respectively. Further, the Kd worked out at 6.07 nM in assay [2] and 1.28 nM in assay [3]. The koff in assay [2] was 0.00045 s⁻¹; in assay [3], 0.000122 s⁻¹. For the same molecule, the association rate constant (kon) was 74200 M⁻¹ s⁻¹ in assay [2] and 95100 M⁻¹ s⁻¹ in assay [3]. Further, the binding result in assay [4] and in assay [5] was “no binding (tested: 20 µg/mL)” in each case.

B2: 59B10D3-Hz antibody (antibody, human IgG1, kappa, V domains shown)
VH: EVQLVESGGGLVQPGGSLRLSCAASGFTFSDAWMDWVRQAPGKGLEWVAEIRNKANNHATYYVDSVKGRFTISRDDAKNSVYLQMNSLRAEDTAVYYCTRNNYGSTWTYYAMDYWGQGTLVTVSS
VL: DIQMTQSPSSLSASVGDRVTITCRASQDISNYLNWYQQKPGKAVKLLIYYTSRLHSGVPSRFSGSGSGTDYTLTISSLQPEDFATYYCQQGYTLPLTFGQGTKVEIKR
notes: Humanized; also called 59B10D3-hz1
As for B2, the figures for the EC50 in assay [1] and in assay [6] were 5.2 ng/mL and 6.3 ng/mL, respectively. The results for the Kd in assay [2] and in assay [3] were 14 nM and 9.08 nM, respectively. Further, the koff is 0.0017 s⁻¹ in assay [2] and 0.000908 s⁻¹ in assay [3]. Besides, the kon in assay [2] was determined as 122000 M⁻¹ s⁻¹; in assay [3] it was 100000 M⁻¹ s⁻¹. Further, the binding result in assay [4] and in assay [5] was “no binding (tested: 20 µg/mL)” in each case.

B3: DL312 (antibody, V domains shown)
VH: EVKLVESGGGLVQPGGSLSLSCAASGFTFTDYYMNWVRQPPGKALEWLALIRNKANGYTTEYNASVKGRFTISRDNSQNILYLQMNALRAEDSATYYCARDSDGYYEYYFDYWGQGTTLTVSS
VL: DIQMTQSPSSLSASLGERVSLTCRASQEISDYLSWLQQKPDGTIKRLIFAASTLDSGVPKRFSGSRSGSDFSLSISSLESEDFADYYCLQYASYPYTFGSGTKLEIK
In the case of B3, in assay [7], the “EC50 (read off the curve)” value was approximately 5 ng/mL.

B4: 55C11E4-Hz1 (antibody, human IgG1, kappa, V domains shown)
VH: EVQLVQSGAEVKKPGASVKVSCKASGYTFTDYYMNWVRQAPGQRLEWMGVINPYNGGTNYSQKFQGRVTLTVDKSASTAYMELSSLRSEDTAVYYCARDSNYVGLLDYWGQGTLVTVSS
VL: DIVLTQSPATLSLSPGERATLSCRASQSISNNLHWYQQKPGQAPRLLIKYASQSISGIPARFSGSGSGPDFTLTISSLEPEDFAVYFCQQSNSWPYTFGQGTKVEIKR
notes: Humanized IgG1/kappa
Regarding B4, the EC50 in assay [1] was 3.9 ng/mL; in assay [6], 4.1 ng/mL. The values for the Kd in assay [2] and in assay [3] were 5.26 nM and 2.37 nM, respectively. In addition, the koff in assay [2] stood at 0.000652 s⁻¹; in assay [3], 0.000479 s⁻¹. In addition, the figures for the kon in assay [2] and in assay [3] were 124000 M⁻¹ s⁻¹ and 202000 M⁻¹ s⁻¹, respectively. The binding result in assay [4] and in assay [5] was “no binding (tested: 20 µg/mL)” in each case.

B5: 87F7F10-Hz (antibody, human IgG1, kappa, V domains shown)
VH: QVQLQESGPGLVKPSETLSLTCTVSGYSITSDFYWNWIRQPPGKGLEWIGYITYDGSTNYNPSLKSRVTISRDTSKNQFSLKLSSVTAADTAVYYCVYGDFNRHAMDYWGQGTLVTVSS
VL: DIVMTQSPDSLAVSLGERATINCRSSQSLFNSRTRKNYLAWYQQKPGQPPKVLIYWASTRESGVPDRFSGSGSGTDFTLTISSLQAEDVAVYYCEQSFYLFTFGQGTKVEIKR
notes: Humanized; also called 87F7F10-hz1
As to B5, the EC50 in assay [1] came out at 3.8 ng/mL; in assay [6], 3.3 ng/mL. Moreover, the dissociation constant (Kd) in assay [2] is 8.57 nM; in assay [3], 2.41 nM. Moreover, the results for the koff in assay [2] and in assay [3] were 0.000218 s⁻¹ and 8.84e-05 s⁻¹, respectively. Further, the kon in assay [2] amounted to 25400 M⁻¹ s⁻¹; in assay [3], 36700 M⁻¹ s⁻¹. Besides, the binding result in assay [4] and in assay [5] was “no binding (tested: 20 µg/mL)” in each case.

B6: DL309 (antibody, V domains shown)
VH: QVQLQQSGGDLMKPGASVKISCKAAGYTFSNYYIEWVKQRPGHGLEWIGEILPGSGSTTYNEKFKGKASFTADTSSNTAYMQLSSLTSEDSAVYYCARWGAREPGFPYWGQGTLVTVSA
VL: DIVMTQSQKFMSTSVGDRVSVTCKASQNVGTNVAWYQQKPGQSPKALIYSASYRYSGVPDRFTGSGSGTDFTLTISNVQSEDLAEYFCQQYNNYPLTFGAGTKLELK
For B6, the “EC50 (read off the curve)” value in assay [7] is approximately 6 ng/mL.

B7: DL301 (antibody, V domains shown)
VH: QVQLQQSGADLVRPGTSVKVSCKASGYAFTNYLIEWIKQRPGQGLEWIGVMNPGSGGTHYSEKFRGKATLTADKSSSTAYMQLISLTSDDSAVYFCARSDYDYVTYAMDYWGQGTSVTVSS
VL: DIKMTQSPSSMYASLGERVTITCKASQDINSYLIWFQQKPGKSPKTLIYRTNRLVDGVPSRFSGSGSGQDYSLTISSLEYGDMGIYYCLQYDEFPFTFGSGTKLEIK
Regarding B7, the “EC50 (read off the curve)” value in assay [7] was approximately 4 ng/mL.

B8: DL306 (antibody, V domains shown)
VH: EVQLQQSGPELVKPGASVKMSCRASGYTFTDYYMKWVKQSHGKSLEWIGDINPNNGDTFYNQKFKGKATLTIDKSSSTAYMQLNSLTSDDSAVYYCARDGNYAYFDYWGQGTTLTVSS
VL: DIVLTQSPASLAVSLGQRATISCRASKSVSTSGYSYMHWYQQKPGQPPKLLIFLASNLESGVPARFSGSGSGTDFTLNIHPVEEEDAATYYCQHSRHLPWTFGGGTKLEIK
Consider B8, for which the “EC50 (read off the curve)” value in assay [7] was approximately 5 ng/mL.

B9: 6F11C10-Hz1 antibody (antibody, human IgG1, kappa, V domains shown)
VH: EVQLVQSGAEVKKPGASVKVSCKASGFTFTDYYMHWVRQAPGQSLEWMGLVYPYNGDISYAQKFQGRVTLTVDTSISTAYMELSRLRSDDTAVYYCARQGNYVNNAIDYWGQGTLVTVSS
VL: DIQMTQSPSSLSASVGDRVTITCKASQNVGNIIAWYQQKPGKSPKALIYLASYRYSGVPSRFSGSGSGTDFTLTISSLQPEDVATYFCQQYSDSPYTFGQGTKVEIKR
notes: Humanized IgG1/kappa
With B9, the EC50 was 4.7 ng/mL in assay [1] and 5.4 ng/mL in assay [6]. The dissociation constant Kd came to 0.243 nM in assay [2] and 0.873 nM in assay [3]. The koff stood at 4.27e-05 s⁻¹ in assay [2] and 0.000328 s⁻¹ in assay [3]. For the same molecule, the figures for the kon in assay [2] and in assay [3] were 175000 M⁻¹ s⁻¹ and 375000 M⁻¹ s⁻¹, respectively. Also, the binding result in assay [4] and in assay [5] was “no binding (tested: 20 µg/mL)” in each case.
